These results are taken from article PMC12699821, “STARD4 suppresses tumorigenesis and attenuates enzalutamide resistance via lipid metabolic reprogramming and AR stabilization in prostate cancer” (Journal of Experimental & Clinical Cancer Research : CR, 2025).

For this assay, the target named is T1, GST-tagged AR (human (Gene ID 367 is the human gene), UniProt P10275 1-920).
T1 construct: androgen receptor, Gene ID 367, in vector pGEX-4T-1; also called GST-AR; source: BL21 (Rosetta) bacterial cells, purified (protein purification kit)
T1 sequence (looked up): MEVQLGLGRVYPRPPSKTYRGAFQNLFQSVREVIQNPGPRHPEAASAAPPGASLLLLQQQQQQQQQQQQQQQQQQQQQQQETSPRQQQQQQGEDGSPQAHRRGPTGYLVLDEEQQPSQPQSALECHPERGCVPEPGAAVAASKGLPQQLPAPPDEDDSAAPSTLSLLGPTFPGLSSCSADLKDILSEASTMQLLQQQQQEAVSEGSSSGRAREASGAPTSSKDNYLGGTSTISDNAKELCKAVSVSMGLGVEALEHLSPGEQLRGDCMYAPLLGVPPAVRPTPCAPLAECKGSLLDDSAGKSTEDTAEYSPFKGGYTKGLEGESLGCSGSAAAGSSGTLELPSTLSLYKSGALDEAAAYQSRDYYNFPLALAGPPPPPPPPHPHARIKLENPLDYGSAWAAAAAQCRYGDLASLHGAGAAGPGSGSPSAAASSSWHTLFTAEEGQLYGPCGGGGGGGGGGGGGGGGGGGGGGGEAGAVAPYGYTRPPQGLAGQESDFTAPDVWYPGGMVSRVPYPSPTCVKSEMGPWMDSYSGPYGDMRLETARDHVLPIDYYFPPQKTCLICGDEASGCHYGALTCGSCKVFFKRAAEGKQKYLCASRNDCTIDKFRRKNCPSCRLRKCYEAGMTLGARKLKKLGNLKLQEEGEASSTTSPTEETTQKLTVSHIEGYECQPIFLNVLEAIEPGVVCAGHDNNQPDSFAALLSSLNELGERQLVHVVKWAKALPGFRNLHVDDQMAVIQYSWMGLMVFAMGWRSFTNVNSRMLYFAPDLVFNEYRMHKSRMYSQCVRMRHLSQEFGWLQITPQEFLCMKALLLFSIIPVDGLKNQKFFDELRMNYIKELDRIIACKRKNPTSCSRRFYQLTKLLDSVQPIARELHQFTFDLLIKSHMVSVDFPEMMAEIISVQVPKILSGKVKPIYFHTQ
Kind of assay: pull-down; purified GST-tagged protein immobilised on glutathione-Sepharose beads, incubated with His-tagged protein in PMSF-supplemented affinity isolation buffer, western blotting. Particulars: both partners purified. On the technique in general: Immunoblotting shows a protein as a band on a membrane.

B1: His-tagged STARD4 (natural protein, human (Gene ID 134429 is the human gene), UniProt Q96DR4 1-205, looked up)
chain: MEGLSDVASFATKLKNTLIQYHSIEEDKWRVAKKTKDVTVWRKPSEEFNGYLYKAQGVIDDLVYSIIDHIRPGPCRLDWDSLMTSLDILENFEENCCVMRYTTAGQLWNIISPREFVDFSYTVGYKEGLLSCGISLDWDEKRPEFVRGYNHPCGWFCVPLKDNPNQSLLTGYIQTDLRGMIPQSAVDTAMASTLTNFYGDLRKAL
notes: STARD4, Gene ID 134429, vector printed as pGMLV; also called His-STARD4; source: BL21 (Rosetta) bacterial cells, purified (protein purification kit)
B1: the binding result was “binds”.
